Measurements published in patent publication US20150203577A1 (Chugai, published 2015).

Key:
[1] = molecular target: T1, mouse FcγRII (mouse, UniProt P08101 30-210); assay: SPR Biacore T200, KD ratio
T1 construct: also called mFcγRII; mFcgRII
T1 sequence: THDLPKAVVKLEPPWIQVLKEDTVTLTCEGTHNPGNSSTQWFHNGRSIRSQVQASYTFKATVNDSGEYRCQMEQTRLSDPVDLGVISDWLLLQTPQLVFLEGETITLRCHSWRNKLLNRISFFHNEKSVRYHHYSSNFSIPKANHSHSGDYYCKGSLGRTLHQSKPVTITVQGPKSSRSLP

[2] = molecular target: T1, mouse FcγRII; assay: SPR Biacore T200, KD ratio; upper end tied to MB397 by Table 8
[3] = molecular target: T1, mouse FcγRII; assay: SPR Biacore T200, KD ratio; upper end tied to MB682 by Table 20
[4] = molecular target: T2, mouse FcγRII extracellular domain, C-terminally His-tagged (mouse, UniProt P08101 30-210); assay: SPR Biacore T200
T2 construct: the whole entry is named; also called mFcγRII; mFcgRII
T2 sequence: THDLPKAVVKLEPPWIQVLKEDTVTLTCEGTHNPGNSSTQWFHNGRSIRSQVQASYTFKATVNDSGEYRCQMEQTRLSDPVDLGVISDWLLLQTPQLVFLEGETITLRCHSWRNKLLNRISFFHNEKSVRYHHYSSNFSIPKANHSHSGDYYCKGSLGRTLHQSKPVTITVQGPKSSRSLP

[5] = molecular target: T3, mouse FcγRIII extracellular domain, C-terminally His-tagged (mouse, UniProt P08508 31-215); assay: SPR Biacore T200, KD ratio
T3 construct: the whole entry is named; also called mFcγRIII; mFcgRIII
T3 chain: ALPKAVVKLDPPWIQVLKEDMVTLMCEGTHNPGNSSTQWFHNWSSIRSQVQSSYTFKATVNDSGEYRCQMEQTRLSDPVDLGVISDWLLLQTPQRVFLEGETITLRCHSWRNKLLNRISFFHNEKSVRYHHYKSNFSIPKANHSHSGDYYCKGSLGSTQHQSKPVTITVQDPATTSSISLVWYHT

[6] = molecular target: T1, mouse FcγRII; assay: SPR Biacore T200, KD ratio; lower end tied to MB684 by Table 20
[7] = molecular target: T1, mouse FcγRII; assay: told of the L104-mk1 form; SPR was run on the MRAL-k0 form
[8] = molecular target: T4, mouse FcγRIII (mouse, UniProt P08508 31-215); assay: as above
T4 construct: also called mFcγRIII; mFcgRIII
T4 chain: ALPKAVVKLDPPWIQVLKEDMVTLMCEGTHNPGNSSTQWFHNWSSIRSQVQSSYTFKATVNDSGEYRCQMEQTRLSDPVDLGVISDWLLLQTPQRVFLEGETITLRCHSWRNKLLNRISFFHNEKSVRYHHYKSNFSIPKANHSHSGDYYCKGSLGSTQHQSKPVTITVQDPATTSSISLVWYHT

[9] = molecular target: T1, mouse FcγRII; assay: SPR Biacore T200, KD ratio; lower end tied to MB425 by Table 8

B1: H237-MB397/MRAL-k0 (antibody, mouse IgG1, kappa)
heavy: QVQLQESGPGLVKPSETLSLTCAVSGHSISHDHAWSWVRQPPGEGLEWIGFISYSGITNYNPSLQGRVTISRDNSKNTLYLQMNSLRAEDTAVYYCARSLARTTAMDYWGEGTLVTVSSAKTTPPSVYPLAPGSAAQTNSMVTLGCLVKGYFPEPVTVTWNSGSLSSGVHTFPAVLQSDLYTLSSSVTVPSSTWPSETVTCNVAHPASSTKVDKKIVPRDCGCKPCICETYEVEDVFIFPPKPKDVLTITLTPKVTCVVVDISKDDPEVQFSWFVDDVEVHTAQTQPREEQFNSTFRSVSELPIMHQDWLNGKEFKCRVNSAAFPAPIEKTISKTKGRPKAPQVYTIPPPKEQMAKDKVSLTCMITDFFPEDITVEWQWNGQPAENYKNTQPIMDTDGSYFVYSKLNVQKSNWEAGNTFTCSVLHEGLHNHHTEKSLSHSPGK
light: not shown
notes: mIgG1 with T230E/V231T/P232Y/S238E/S239D; also called template T4; copies: 2 + 2
[1]
  relative mFcγRII-binding activity (H237-mIgG1/MRAL-k0 = 1): > 500 fold
[2]
  relative mFcγRII-binding activity (H237-mIgG1/MRAL-k0 = 1): 600 fold

B2: MB682 (antibody)
heavy: QVQLQESGPGLVKPSETLSLTCAVSGHSISHDHAWSWVRQPPGEGLEWIGFISYSGITNYNPSLQGRVTISRDNSKNTLYLQMNSLRAEDTAVYYCARSLARTTAMDYWGEGTLVTVSSAKTTPPSVYPLAPGSAAQTNSMVTLGCLVKGYFPEPVTVTWNSGSLSSGVHTFPAVLQSDLYTLSSSVTVPSSTWPSETVTCNVAHPASSTKVDKKIVPRDCGCKPCICEPKEVEDVFIFPPKPKDVLTITLTPKVTCVVVDISKDDPEVQFSWFVDDVEVHTAQTQPREEQFNSTFRSVSELPIMHQDWLNGKEFKCRVNSAAFPAPIEKTISKTKGRPKAPQVYTIPPPKEQMAKDKVSLTCMITDFFPEDITVEWQWNGQPAENYKNTQPIMDTDGSYFVYSKLNVQKSNWEAGNTFTCSVLHEGLHNHHTEKSLSHSPGK
light: not shown
notes: copies: 2 + 2
[3]
  relative mFcγRII-binding activity (H237-mIgG1/MRAL-k0 = 1): 5 to 15 fold

B3: H237-MB656/MRAL-k0 (antibody, mouse IgG1, kappa)
heavy: QVQLQESGPGLVKPSETLSLTCAVSGHSISHDHAWSWVRQPPGEGLEWIGFISYSGITNYNPSLQGRVTISRDNSKNTLYLQMNSLRAEDTAVYYCARSLARTTAMDYWGEGTLVTVSSAKTTPPSVYPLAPGSAAQTNSMVTLGCLVKGYFPEPVTVTWNSGSLSSGVHTFPAVLQSDLYTLSSSVTVPSSTWPSETVTCNVAHPASSTKVDKKIVPRDCGCKPCICIPAEVEFVFIFPPKPKDVLTITLTPKVTCVVVDISKDDPEVQFSWFVDDVEVHTAQTQPREEQFNSTFRSVSELPIMHQDWLNGKEFKCRVNSAAFPAPIEKTISKTKGRPKAPQVYTIPPPKEQMAKDKVSLTCMITDFFPEDITVEWQWNGQPAENYKNTQPIMDTDGSYFVYSKLNVQKSNWEAGNTFTCSVLHEGLHNHHTEKSLSHSPGK
light: not shown
notes: copies: 2 + 2
[4]
  binding result: no binding
[5]
  relative mFcγRIII-binding activity (mIgG1 = 1): 0.02 fold

B4: MB684 (antibody)
heavy: QVQLQESGPGLVKPSETLSLTCAVSGHSISHDHAWSWVRQPPGEGLEWIGFISYSGITNYNPSLQGRVTISRDNSKNTLYLQMNSLRAEDTAVYYCARSLARTTAMDYWGEGTLVTVSSAKTTPPSVYPLAPGSAAQTNSMVTLGCLVKGYFPEPVTVTWNSGSLSSGVHTFPAVLQSDLYTLSSSVTVPSSTWPSETVTCNVAHPASSTKVDKKIVPRDCGCKPCICQPKEVEDVFIFPPKPKDVLTITLTPKVTCVVVDISKDDPEVQFSWFVDDVEVHTAQTQPREEQFNSTFRSVSELPIMHQDWLNGKEFKCRVNSAAFPAPIEKTISKTKGRPKAPQVYTIPPPKEQMAKDKVSLTCMITDFFPEDITVEWQWNGQPAENYKNTQPIMDTDGSYFVYSKLNVQKSNWEAGNTFTCSVLHEGLHNHHTEKSLSHSPGK
light: not shown
notes: copies: 2 + 2
[6]
  relative mFcγRII-binding activity (H237-mIgG1/MRAL-k0 = 1): 5 to 15 fold

B5: H237-mF46/L104-mk1 (antibody, mouse IgG1, kappa)
heavy: QVQLQESGPGLVKPSETLSLTCAVSGHSISHDHAWSWVRQPPGEGLEWIGFISYSGITNYNPSLQGRVTISRDNSKNTLYLQMNSLRAEDTAVYYCARSLARTTAMDYWGEGTLVTVSSAKTTPPSVYPLAPGSAAQTNSMVTLGCLVKGYFPEPVTVTWNSGSLSSGVHTFPAVLQSDLYTLSSSVTVPSSTWPSETVTCNVAHPASSTKVDKKIVPRDCGCKPCICTVPEVSDVFIFPPKPKDVLTITLTPKVTCVVVDISKDDPEVQFSWFVDDVEVHTAQTQPREEQFNSTFRSVSELPIMHQDWLNGKEFKCRVNSADFPAPIEKTISKTKGRPKAPQVYTIPPPKEQMAKDKVSLTCMITDFFPEDITVEWQWNGQPAENYKNTQPIMDTDGSYFVYSKLNVQKSNWEAGNTFTCSVLHEGLHNHHTEKSLSHSPGK
light: DIQMTQSPSSLSASVGDSVTITCQASTDISSHLNWYQQKPGKAPELLIYYGSHLLSGVPSRFSGSGSGTDFTFTISSLEAEDAATYYCGQGNRLPYTFGQGTKVEIERADAAPTVSIFPPSSEQLTSGGASVVCFLNNFYPKDINVKWKIDGSERQNGVLNSWTDQDSKDSTYSMSSTLTLTKDEYERHNSYTCEATHKTSTSPIVKSFNRNEC
notes: the text speaks of it for this form; copies: 2 + 2
[7]
  binding result: binds
[8]
  binding result: binds

B6: H237-MB425/MRAL-k0 (antibody, mouse IgG1, kappa)
heavy: QVQLQESGPGLVKPSETLSLTCAVSGHSISHDHAWSWVRQPPGEGLEWIGFISYSGITNYNPSLQGRVTISRDNSKNTLYLQMNSLRAEDTAVYYCARSLARTTAMDYWGEGTLVTVSSAKTTPPSVYPLAPGSAAQTNSMVTLGCLVKGYFPEPVTVTWNSGSLSSGVHTFPAVLQSDLYTLSSSVTVPSSTWPSETVTCNVAHPASSTKVDKKIVPRDCGCKPCICIPAEVEDVFIFPPKPKDVLTITLTPKVTCVVVDISKDDPEVQFSWFVDDVEVHTAQTQPREEQFNSTFRSVSELPIMHQDWLNGKEFKCRVNSAAFPAPIEKTISKTKGRPKAPQVYTIPPPKEQMAKDKVSLTCMITDFFPEDITVEWQWNGQPAENYKNTQPIMDTDGSYFVYSKLNVQKSNWEAGNTFTCSVLHEGLHNHHTEKSLSHSPGK
light: not shown
notes: mIgG1 with T230I/V231P/P232A/S238E/S239D; also called template T7; copies: 2 + 2
[9]
  relative mFcγRII-binding activity (H237-mIgG1/MRAL-k0 = 1): 200 fold
